Measured values from the DeepSol protein solubility set.

experiment: soluble on expression in E. coli; label from the status in PepcDB or PDB records

| Sequence | soluble on expression in E. coli |
| --- | --- |
| MGSDKIHHHHHHMNFKEALEGIKLVLESKAVPLLVGESGIGKTSLVKKLSKDEEYYYINIDGNLLKEGEIGGLPVVQDYGDEKSLIKKTVYAAYYKFIKIDEILKNNPNQKVLLFIDEINRCEHSVQQEIMNIILNREINGYKLKDNITVIAAMNPSSKYDEFEESDYQVNDMDPAQEDRFVWIYLESDVNNWIEWGHERINGESRIHEDILGFIASFPEYLSTPNSKESIKATPRSWERVSNIYKAYIKKKTKVSRNIFYNLIRGNVGTSIAQDFINYIDESKSPLLTPEDIFANDCISEDIKDRIRKESHSRLFLSAKNILFYLENKEDRSREVEIFSEFLSLYPNDLKLGIMQNIKSDSSKKLYKEFLENTSFLENFFLMYEGIED | not soluble |
| MGSDKIHHHHHHMTNIGETIHQIRLSKGLTQQEVYSGIISRSFASRFESGANDIGASKLFAILDNLAISADELRFIHQNYQPSAYDQALWTIRHAYETLNFPALATWIREHRHSPHAYEQLIASYASILMLSYDHRSIGITTTTQPAFDHLRQAKTWTLQELKLVPVLIPIIASIDGLAALTPLTTRMAANCASYQTAWGDPFHVSNDLLDFYGSLFQTKLNFHDFQSAQNLKTKFTAIDSHQLNWDGRLSQQFWLGIWNLYFGDWQIGNQLLDEVSVLETHHHPRIDNTLFAIRNVRTKQAQTYRQSHQSHKHL | not soluble |
| MGSDKIHHHHHHMNQVTTYLWETHLPGGSHWSGVVRRGTTLRLTDVSGGANAAVLFYNLEEKLERYNMADTLKTQHTFCLTKGHACHSDMGRIFCCITEDTAGWHDTVCGLSDAELIQQKYGTGRYQELRNDMYRNGLDGMLVELGKWGLGRRDVVSNINFFSKVTANSVGELQFHVSHSKAGDHVDLAFAMDTLVVLSAAPHPLDPAATYRPGAVNLAVFPSTPAVTGACAHIAENARGLENTRRLYAYGGVK | not soluble |
| MRLTTKGRYAVTAMLDLALHAQQGPVSLADISERQGISLSYLEQLFAKLRRGNLVTSVRGPGGGYQLSRHMSGIHVAQVIDAVNESVDATRCQGQGDCHSGDTCLTHHLWCDLSLQIHEFLSGISLADLVSRQEVQEVALRQDERRCSGKTPRLDKIEASAID | not soluble |
| MIRDYKSKLEFLAFYDELTGLPNKNSLIRWLNLKVSQMDCIDTYLIFLEVRDLEKLNVTYGYDLVDELIIHISKRIKDIAGEGNKAFKIGFDRFAIICKSENISDFIERMLSQLLLPYNVNGNLIRVNFNIGAAQIENSNEAAANLMRRCDLALIKAKEEGLNEYVIFKPSIELEHHHHHH | not soluble |
| MGSDKIHHHHHHMSDDELLFAEEDPSDNVGEGIGRAPWVILVVDDDTEVHALSRLLLSEIEFKGRRVAMYSAYSAAEARAMLGRIDDVAVILLDVVMETDDAGLKLVRTIRETMNNRDVRIILRTGQPGQAPEREVIETYDINDYKSKTELTAQKLHTALVAALRAYDDIMALVLSRQGLRKILDAAASLYRQRSMELFAAGVLTQINALLGGDRDGILCVQSRKEQADEDDPAGAMVVLAASGAYERLVGKRVDELPESPVISLIREAAASRTSRHGSHASALYMPTGDGRETVVFLHAAEPLKAQDRALMQLFCDNISAGFDTVCEIDDLRRENVRLRARLGEAKAP | not soluble |
| QLPCNLSPLNWVGMQHIDLPTVIDTANQTVNTKVDVYVNLPKSSVKGIHMSRLYHLINHLSVLNTMSIKSVLKQMIDSHQDCGTTAAKIVFKFDLLLKRDAIVSTALSGWKSYPVIIEASIINELFNIEYKLDISYSSTCPCSAALSRQIIKNGFKADFSSQNLIPSADIEAWLEQYATLATPHSQRSIATVVVQPFDYAHDINFVDLIDSIENTLKTPTQTAVKRADEQAFAKLNGENLMFVEDAARRLKMLLDQKYKFWSAQVVHQESLHPHDAIAVAISS | not soluble |
| MDMKKWLVATALIATTISGVTQAKEWKTVRFGIEGAYPPFSWTEADGSLKGFDVDMANALCAEMQVECKIVPQDWDGIIPSLLARKYDAIIAAMSITEERKKKVDFTGKYAQIPNKFIAKKGADLAFTKEGLKGVKIGVQRATTHDKYITDNYGDTVDIVRYGSFDEAYLDLANGRIAAVLGDASALEEGMLNKPGGDAYEFVGPSLTDPKWFGEGMGIAVRKQDKELTEKLDAAITALREKGIYQQIQAKYFKYDVYGE | not soluble |
| MGHHHHHHSHMIRDLEYYDSPILRKVAAPVTEITDELRQLVLDMSETMAFYKGVGLAAPQVGQSISLFIMGVERELEDGELVFCDFPRVFINPVITQKSEQLVYGNEGCLSIPGLRGEVARPDKITVSAKNLDGQQFSLALEGFLASIVMHETDHLHGVLYIDRMSDKDKTKQFKNNLEKIRRKYSILRGL | soluble |
| MTNERVMQLIREAYEKNLTTLDLSENQLTQLPSEITELKNLTTLNLSGNQLTQLPSEIGELKSLTSFDLSVNQLTQLPPEIGELKNLTILNVYRNQLIQLLPEITELKNLTTLDLSLNKLTQLPPEIGELEHHHHHH | not soluble |
| MENQVEVMTYAHLKEIMQALEANEAITEDTKVFIDTGWDSVQEVAPDAVSIEKVAKFTVADVLTNESFAGYSLEEKAEKMNAEGDLETAIIIRNLY | not soluble |
| MSLEPSVTGPSEAPVLDTAWMKAVPSVRPVPAGSAAEALEALAVKGRAADDSYERTAFGQAWLDVDRNGCDTRNDILRRDLAGVQFTEGSRCRVAGGEFHEPYTGAVVTFTRGAESSKAVQIDHVVALGDAWQKGAQQLTPQQRQSLANDPLNLVAADGPANQEKSASDAASWLPKNKTFRCHYVARQISVKAAYGLWVTQPEKDAMKRVLDSCPQQQTVMPREGHHHHHH | soluble |
| MGSDKIHHHHHHMTHQNSPLFLKSALRLYNRASFKASHKVIEEYSTSFSLSTWLLSPRIRNDIRNLYAVVRIADEIVDGTAHAAGCSTAKIEEILDAYEIAVLAAPQQRFNTDLVLQAYGETARRCDFEQEHVIAFFASMRKDLKANTHDPDSFTTYVYGSAEVIGLLCLSVFNQGRTISKKRLEIMQNGARSLGAAFQKINFLRDLAEDQQNLGRFYFPKTSQGTLTKEQKEDLIADIRQDLAIAHDAFPEIPVQARIGVISAYLLFQKLTDRIEATPTADLLRERIRVPLHIKLSTLARATMKGLSMSIYRKNS | not soluble |
| MSLVRGVLKRSKFRKMIRRAKVGDAKYIYELLTEFAKRGILLPRSLNSIYENIRDFWVYEKDGKVVGCVALHVMWEDLAEIRSLAVKEEYQKEGIGRELVIRALEDAWELGIKKVFSLTYVKEFFKKLGFKEIDKSVLPHKVWGECINCVKFPNCDEEAVLVELSEEYIKKLKEGEKISSLLPEGHHHHHH | soluble |
| MFCRDTLCDTTPAVTDFLNGLSAVASKSPCSGDGALSDGHNAQSRMPVMGHVFLTGLLCVSRLARKRQLLLKRLKQSALPPRASATPSMEDVAVQSPSAAADAGDTVFVRLVLSLLGHTLMKQATTAPCAASPGDNASPQAAPLPWWPATSAPSENAEDVVYDVQCVGNEDDHAGDNVGFSEEHAPGVGHMLFTASTSVHCRIVLRSHPVAIFSPAMMSELALDAEQRASVASRTWCHGGAPGTDSSEAVDAEADAGSCVARALEVFDACVRDHEEACLRQIAEIVGSLQRLLEKPATEVQSPGGLASTGSPSDSANASASRLGGCASPLHEWTIDVPIYGVVLYIEDTHATRLERVRRLTTPLLQAATGCGNAAGGPLGPVTQVLSKLHTWCAAWTAASSTSSTSPGASSCTPGIRTITLMHVTELRQLVDSHLKNSQTAAARLPGPANPATVGYDVSQALAAPACVVHCQLGVSRSPSVVMLFYMDVLAPQLRAAASAAEAPLNIFHGLLNALVQARHRVRPNVCFSAQLLSLWRRLMQLDTPASPTRVV | not soluble |
| MGSDKIHHHHHHMGFRNVIITQHSKLSYSNNAMIVQNKDGINQIPLVDMDILLISTTQAVITSALVSKLAESGIKVIFTDNKNEPVTETVNYYPNNRSLDTYLQQYEWNDHVKEILWTKIVRSKIINQIKVLKNYQIDCQDLKIELDKLEINDMTNREAVVARKYFEKLFGNKYSRKDFTPMNAALNYGYSILLSAVNKEIVSAGYVTYLGIHHQSQENMFNFGSDLMESFRPVVDYWLADKNFLEFTPDIKYGLVDLLNLEIKYNKKQMLLKNAITKYVRDVIEYLNQETVEFDMEVEFTNEVPNNAINDNI | not soluble |
| MSLADTIIKNAKIVDVYNARIIEGTLAIADSRFLGIDAAYTADNVINAHGQYVVPGLIDPHIHIESANVSPAVFGSLVTPHGTTTILADPHEIVNVAGMRGLEYMVASAKNTALDIKYTMPSCVPAANPTLETSGAVITADEIKQSYDQGLTYGLAEFMNYPGVVNADDGVLDELLVSLNARKMIDGHSPALHGQGLNAYAAAGVHNDHECTQVDEMLDRISRGMYVYLRYGTVSKNMPTLLKGVTPQNARFCCLCGDDLQSVTLRETGHLDESIRVAIQNGIDPLTAIQMATINTAQCTGLSDRGGIAPGLKADFLLVDDLEHFNVNQTFIDGQKIAANGAYLLPTDDSVAGFDDLLETVHLDNFSADQLKLNLTSDKAHVIGLQSISRTQNLVLPVAHDAEGDFHYKPSEDIVKVAVVERHHLTGNVGVGLLSGFGLQNGAIATSIGHDSHNLVVVGTNDADMVVAIDALKACQGGGVAVQNGQVIATLPFVIGGLMSTEPIDSLIAHQKAFNTICHEQLNVTAQFDPIMKLGAMPLDVIPNLRITDKGLVDVTKFEIIDINAEGHHHHHH | soluble |
| MIQIEDVVVSFDVLREKFLCNLDACKGECCIEGDAGAPVELDEVEKLEEVLPIIWEELSPEARAVIEKQGVVYTDQEGDLVTSIVNNKDCVFTCYDEKGCCYCAIEKAYRDGKTDFYKPVSCHLYPIRIGDYGPYKAVNYHRWDVCKAAVLLGKKENVAVYQFLKEPLIRKFGEKWYQELEVAVKELKAHDMI | not soluble |
| MGKKELKRGLVVDREAQMIGVYLFEDGKTYRGIPRGKVLKKTKINAGDYVWGEVVDPNTFAIEEVEERKNLLIRPKVANVDRVIIVETLKMPEFNNYLLDNMLVVYEYFKVEPVIVFNKIDLLNEEEKKELERWIAFTGMRATTFSRLEHHHHHH | not soluble |
| MGSDKIHHHHHHMKEIVTVGVDIAKNVFQVHGVDAQGVVVVRRKLRRSKVSGFFESLPPCLIGIEACATAHHWARHLMALGHEVKLMPAAYVKPYVKRQKNDAADAEGICEAVQRPTMRFVPVKSKEQQGVLMLHRARELLVRQRTMLINALRAHLAELGIATRLGPMGVKDAVAVIEGIDQHLIPEIVQHALSPLCDQLRHVHTKIEEMDRQILEWHRSSALSQRLATIPGIGPVTASAIAATITDVSSFRSGRQLAAWIGLVPRQSSSGGKERLGRITRQGDPYIRRLLVIGAAL | not soluble |
| SQTVHFQGNPVTVANSIPQAGSKAQTFTLVAKDLSDVTLGQFAGKRKVLNIFPSIDTGVSAASVRKFNQLATEIDNTVVLCISADLPFAQSRFCGAEGLNNVITLSTFRNAEFLQAYGVAIADGPLKGLAARAVVVIDENDNVIFSQLVDEITTEPDYEAALAVLKA | soluble |
| MARFALVLHAHLPYVRAHGMWPFGEETLYEAMAETYLPLIRVLERLRAEGVEAPFTLGITPILAEQLADARIKEGFWAYAKDRLERAQGDYQRYRGTALEASARHQVAFWELTLDHFQRLSGDLVAAFRKAEEGGQVELITSNATHGYSPLLGYDEALWAQIKTGVSTYRRHFAKDPTGFWLPEMAYRPKGPWKPPVEGPPEGVRPGVDELLMRAGIRYTFVDAHLVQGGEPLSPYGEAALGPVESQEATYHVHELESGLRVLARNPETTLQVWSADYGYPGEGLYREFHRKDPLSGLHHWRVTHRKADLAEKAPYDPEAAFAKTEEHARHFVGLLERLAGRHPEGVILSPYDAELFGHWWYEGVAWLEAVLRLLAQNPKVRPVTAREAVQGPAVRTALPEGSWGRGGDHRVWLNEKTLDYWEKVYRAEGAMREAARRGVLPEGVLRQAMRELLLLEASDWPFLMETGQAEAYARERYEEHARAFFHLLKGASPEELRALEERDNPFPEADPRLYLFREA | soluble |
